Data: patent US11332546B2, “Protease inhibitory antibodies and methods of use thereof” (The Regents of The University of California, priority 2019, dated 2022)
Residue numbers refer to the chain shown, from its start. Blank lines part the entries; values can stand above or below the molecule they belong to.

Key:
cdMMP-12 wt = biological target: T1, cdMMP-12 wt (Homo sapiens, UniProt P39900); test: Fibronectin proteolysis inhibition, cdMMP-12 wt (western blot); type: biochemical; details: 2 μM GM6001; 350 nM wt cdMMP-12, 200 nM fibronectin, 37° C.
T1 construct: hexahistidine (C); made in house; host or cells: E. coli BL21 (pET32b, cytoplasmic)
T1 sequence (P39900 106-263): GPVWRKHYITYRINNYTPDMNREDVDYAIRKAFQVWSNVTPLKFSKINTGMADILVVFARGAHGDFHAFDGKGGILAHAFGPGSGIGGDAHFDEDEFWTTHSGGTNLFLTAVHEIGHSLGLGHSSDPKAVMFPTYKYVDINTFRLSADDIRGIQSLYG
Experimental: Inhibition tests with macromolecular substrates 10 μg/mL FITC-conjugated elastin (AnaSpec) was incubated with 7 nM cdMMP-12 D4/wt and 2-2000 nM purified Fab in 50 mM Tris-HCl, 150 mM NaCl, 5 mM CaCl2), 100 μM ZnCl2 pH 7.5. Generated fluorescent signals were measured at 12 h with λEx of 490 nm and λEm of 520 nm. […] The samples were separated on 5% non-reducing SDS-PAGE and analyzed by western blotting with anti-Fibronectin antibody (Abcam) and chemiluminescent substrate (Thermo Scientific). […] Assays without cdMMP-12s or Fabs were performed as controls.

cdMMP-12 mutant D4 = biological target: T2, cdMMP-12 mutant D4 (Homo sapiens, UniProt P39900, A167E/A173P/A252Q/H206S/I245T/K233R/M156E/N119Q/N126H/R135E/T215V/V161I/Y113D/Y132K); test: Bio-layer interferometry (BLItz) on cdMMP-12 D4; type: binding; details: read-out: Affinity on cdMMP-12 D4
T2 construct: hexahistidine (C); made in house; host or cells: E. coli BL21, pET32b (cytoplasmic, soluble fraction)
T2 sequence (P39900 106-263 Y113D/N119Q/N126H/Y132K/R135E/M156E/V161I/A167E/A173P/H206S/T215V/K233R/I245T/A252Q): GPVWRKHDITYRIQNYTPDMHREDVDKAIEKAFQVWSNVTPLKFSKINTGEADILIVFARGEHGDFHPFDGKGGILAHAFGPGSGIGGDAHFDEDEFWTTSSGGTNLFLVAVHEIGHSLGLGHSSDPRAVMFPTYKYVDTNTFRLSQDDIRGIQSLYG
Experimental: ELISA and binding kinetics measurement Purified cdMMP-9, cdMMP-12 D4/wt, and cdMMP-14 were biotinylated by using EZ-Link Sulfo-NHS-LC kit (Thermo Fisher). On streptavidin coated ELISA plates, 5 μg/mL biotinylated cdMMPs were immobilized and incubated with two-fold serially diluted purified Fabs. Bound Fabs were detected with anti-Fab-HRP (Sigma-Aldrich), and signals were developed by TMB substrate (Thermo Scientific) and measured using a microplate reader (BioTek). In competitive ELISA, 500 nM Fabs of interest were mixed with 0.01-10 μM GM6001 or 0.8-200 μM nTIMP-2 for 30 min, then transferred to ELISA plates coated with cdMMP-12 D4/wt for incubation 15 min at room temperature. Bound Fabs were detected using anti-Fab-HRP. For bio-layer interferometry (using ForteBio BLItz), biotinylated cdMMP-12 D4/wt was loaded onto streptavidin biosensors. After washing to establish baselines, 50, 100, or 200 nM of Fabs were associated with immobilized cdMMP-12 D4/wt for 200 sec, then dissociated into 50 mM HEPES, 150 mM NaCl pH 7.5 for 120 sec. Averages of measured kon and koff values were determined for KD calculations.

BACE1 [1] = biological target: T3, BACE1 (Homo sapiens, UniProt P56817); test: FRET peptide inhibition assay, BACE1 (M-2420); type: biochemical; details: BACE-1, FRET peptide; for Ki: Fab, read-out: Inhibition Potency KI; for Inhibition Potency KI (associated IgG, in parentheses): IgG format
T3 construct: human β-secretase 1 (BACE1, residue 46-457); made in house; host or cells: HEK293F (secreted, protein A purified)
T3 sequence (P56817 46-457): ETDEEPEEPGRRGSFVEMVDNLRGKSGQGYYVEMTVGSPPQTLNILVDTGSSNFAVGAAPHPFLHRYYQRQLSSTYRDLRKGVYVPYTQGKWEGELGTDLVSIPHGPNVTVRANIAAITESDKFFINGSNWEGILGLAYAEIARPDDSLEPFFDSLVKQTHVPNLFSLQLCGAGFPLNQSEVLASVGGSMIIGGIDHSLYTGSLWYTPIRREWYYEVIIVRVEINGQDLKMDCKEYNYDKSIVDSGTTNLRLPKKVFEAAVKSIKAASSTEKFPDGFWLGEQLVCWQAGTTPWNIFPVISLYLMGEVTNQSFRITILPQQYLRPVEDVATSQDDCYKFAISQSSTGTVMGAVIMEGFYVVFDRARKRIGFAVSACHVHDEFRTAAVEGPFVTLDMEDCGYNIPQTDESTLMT
Experimental: (§1) For inhibition tests, 1 μM Fabs were 2-fold serially diluted into protease specific assay buffer and incubated with 1-10 nM proteases for 30 min at room temperature. […] Inhibition percentages at given concentrations were calculated by comparing the initial reaction rates in the presence or absence of inhibitor. IC50 was determined as the concentration that achieved 50% inhibition, and KI values were calculated using KI=IC50/(S/Km+1). Vmax and Km at various Fab concentrations were measured to determine the inhibition type. FRET inhibition assays were also used for selectivity tests of isolated Fabs with the relevant proteases.

BACE1 [2] = biological target: T3, BACE1; test: Binding kinetics by biolayer interferometry, Fabs/IgGs on BACE1; details: for Kd: Fab, read-out: Binding Affinity KD; for Binding Affinity KD (associated IgG, in parentheses): IgG format
Experimental: Binding kinetics of produced antibodies towards associated protease targets were analyzed by using biolayer interferometry (ForteBio). For Fabs, biotinylated proteases were immobilized on streptavidin biosensors, and Fab binding to the sensors in absence of protease was monitored as backgrounds. For IgGs, protein A sensors were used and protease bindings without IgG were checked as backgrounds. kon and koff were determined for KD calculations. […] Fab in vitro stability was tested by incubating 1 μM Fab with 1 μM of the respective protease in the assay buffer for 12 hours and the samples were analyzed by SDS-PAGE.

BACE2 = biological target: T4, BACE2 (Homo sapiens, UniProt Q9Y5Z0); test: FRET inhibition selectivity test, BACE2; type: biochemical; details: IgG
T4 sequence (Q9Y5Z0 63-518): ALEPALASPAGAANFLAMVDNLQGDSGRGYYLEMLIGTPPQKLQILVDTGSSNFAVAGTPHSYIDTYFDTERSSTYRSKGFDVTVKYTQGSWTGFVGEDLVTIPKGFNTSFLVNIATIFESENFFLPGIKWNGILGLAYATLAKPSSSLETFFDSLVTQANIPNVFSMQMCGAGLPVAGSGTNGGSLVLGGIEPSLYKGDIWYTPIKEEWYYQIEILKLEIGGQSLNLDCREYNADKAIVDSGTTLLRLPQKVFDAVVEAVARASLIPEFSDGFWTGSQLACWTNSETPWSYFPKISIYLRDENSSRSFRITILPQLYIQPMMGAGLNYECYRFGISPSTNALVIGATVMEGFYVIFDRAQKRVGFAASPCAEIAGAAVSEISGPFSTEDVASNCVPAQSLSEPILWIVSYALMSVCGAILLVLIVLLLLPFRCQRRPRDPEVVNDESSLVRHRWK
Experimental: as §1

cdMMP-9 = test: FRET inhibition selectivity test, cdMMP-9 (Example 1); type: biochemical; details: Fab at 500 nM
Experimental: as §1

Molecule: CNC(=O)[C@H](Cc1c[nH]c2ccccc12)NC(=O)[C@@H](CC(=O)NO)CC(C)C [GM6001, reference compound]
Fibronectin remaining after cdMMP-12 wt hydrolysis (cdMMP-12 wt): significant amounts of fibronectin remained

Molecule: nTIMP-1: N-terminal domain of tissue inhibitor of metalloproteinases 1, endogenous inhibitor of MMPs
Kd (cdMMP-12 mutant D4): 500 nM

B3: Fab B2B2: anti-BACE-1 antibody clone; VL SEQ ID NO:44, VH SEQ ID NO:46, CDR-H3 SEQ ID NO:49 (antibody, V domains shown)
VH: EVQLVESGGGLVQPGGSLRLSCAASGFNISSYYMHWVRQAPGKGLEWVASIYSSYGYTYYADSVKGRFTISADTSKNTAYLQMNSLRAEDTAVYYCARYWGYYAWFGSHPWAYGAFDYWGQGTLVTVSSAS
VL: DIQMTQSPSSLSASVGDRVTITCRASQSVSSAVAWYQQKPGKAPKLLIYSASSLYSGVPSRFSGSRSGTDFTLTISSLQPEDFATYYCQQYGYYLITFGQGTKVEIKR
Ki (BACE1 [1]): 87 nM
Kd (BACE1 [2]): 52 nM

B5: Fab B2B9: anti-BACE-1 antibody clone; VL SEQ ID NO:96, VH SEQ ID NO:53, CDR-H3 SEQ ID NO:56 (antibody, V domains shown)
VH: EVQLVESGGGLVQPGGSLRLSCAASGFNISYSSMHWVRQAPGKGLEWVASIYPSYSYTSYADSVKGRFTISADTSKNTAYLQMNSLRAEDTAVYYCARSSSSYYYGMDYWGQGTLVTVSSAS
VL: B3 VL with Y91S, G92S, Y94S
Ki (BACE1 [1]): 120 nM
Kd (BACE1 [2]): 110 nM

B7: Fab 2B12: anti-MMP-14 antibody clone; VL SEQ ID NO:90, VH SEQ ID NO:5, CDR-H3 SEQ ID NO:8 (antibody, V domains shown)
VH: EVQLVESGGGLVQPGGSLRLSCAASGFNIYYSSMHWVRQAPGKGLEWVAYIYSSSSYTYYADSVKGRFTISADTSKNTAYLQMNSLRAEDTAVYYCARDCCSCVFSQSAGITLACVYVMDYWGQGTLVTVSSAS
VL: DIQMTQSPSSLSASVGDRVTITCRASQSVSSAVAWYQQKPGKAPKLLIYSASSLYSGVPSRFSGSRSGTDFTLTISSLQPEDFATYYCQQWGPHYAPITFGQGTKVEIKR
Inhibition of cdMMP-9 (selectivity) (cdMMP-9): did not inhibit

B8: Fab B1B3: anti-BACE-1 antibody clone; VL SEQ ID NO:104, VH SEQ ID NO:61, CDR-H3 SEQ ID NO:64 (antibody, V domains shown)
VH: EVQLVESGGGLVQPGGSLRLSCAASGFNISYYSMHWVRQAPGKGLEWVASISPYYGSTYYADSVKGRFTISADTSKNTAYLQMNSLRAEDTAVYYCARERSSCPVGWRDSRFGADGYGLEYWGQGTLVTVSSAS
VL: B7 VL with W91S, P93H, H94Y, Y95H, A96S, P97L
Ki (BACE1 [1]): 210 nM
Kd (BACE1 [2]): 31 nM

B9: Fab 1A5: anti-MMP-14 antibody clone; VL SEQ ID NO:92, VH SEQ ID NO:9, CDR-H3 SEQ ID NO:12 (antibody, V domains shown)
VH: EVQLVESGGGLVQPGGSLRLSCAASGFNLYYYYMHWVRQAPGKGLEWVAYIYPYSGSTYYADSVKGRFTISADTSKNTAYLQMNSLRAEDTAVYYCARLDFLMRDIYYDLGGGALGWLIKYAMDYWGQGTLVTVSSAS
VL: DIQMTQSPSSLSASVGDRVTITCRASQSVSSAVAWYQQKPGKAPKLLIYSASSLYSGVPSRFSGSRSGTDFTLTISSLQPEDFATYYCQQYSGPYPITFGQGTKVEIKR
Inhibition of cdMMP-9 (selectivity) (cdMMP-9): did not inhibit

More lines, now with the values ahead:

Kd (cdMMP-12 mutant D4): 290 nM
Molecule: nTIMP-2: N-terminal domain of tissue inhibitor of metalloproteinases 2, endogenous inhibitor of MMPs

Ki (BACE1 [1]): 23 nM
Inhibition Potency KI (associated IgG, in parentheses) (BACE1 [1]): 13 nM
Kd (BACE1 [2]): 10 nM
Binding Affinity KD (associated IgG, in parentheses) (BACE1 [2]): 7 nM
B1: Fab B3B12: anti-BACE-1 antibody clone; VL SEQ ID NO:25, VH SEQ ID NO:29, CDR-H3 SEQ ID NO:32 (antibody, V domains shown)
VH: EVQLVESGGGLVQPGGSLRLSCAASGFNIPYSSMHWVRQAPGKGLEWVASISSYSSSTSYADSVKGRFTISADTSKNTAYLQMNSLRAEDTAVYYCARYICGHRWRDFDMWRARTGVNYAMDYWGQGTLVTVSSAS
VL: DIQMTQSPSSLSASVGDRVTITCRASQSVGTYLNWYQQKPGKAPKLLIYATSNLRSGVPSRFSGSGSGTDFTLTISSLQPEDFATYYCQQSYSIPRFTFGPGTKLEIKR

Inhibition Potency KI (associated IgG, in parentheses) (BACE1 [1]): 13 nM
Inhibition of BACE2 (selectivity) (BACE2): but not BACE2
Binding Affinity KD (associated IgG, in parentheses) (BACE1 [2]): 7 nM
B2: IgG B3B12: anti-BACE1 inhibitory Fab B3B12 converted into IgG format (antibody, V domains shown)
VH: B1 VH
VL: B1 VL

Ki (BACE1 [1]): 100 nM
Kd (BACE1 [2]): 100 nM
B4: Fab B2B3: anti-BACE-1 antibody clone; VL SEQ ID NO:102, VH SEQ ID NO:50, CDR-H3 SEQ ID NO:52 (antibody, V domains shown)
VH: EVQLVESGGGLVQPGGSLRLSCAASGFNISYSSIHWVRQAPGKGLEWVAYISSYSSSTYYADSVKGRFTISADTSKNTAYLQMNSLRAEDTAVYYCARSASGIDYWGQGTLVTVSSAS
VL: B3 VL with Y91S, Y94A, L95P, I96F

Ki (BACE1 [1]): 41 nM
Inhibition Potency KI (associated IgG, in parentheses) (BACE1 [1]): 35 nM
Kd (BACE1 [2]): 21 nM
Binding Affinity KD (associated IgG, in parentheses) (BACE1 [2]): 16 nM
B6: Fab B1A4: anti-BACE-1 antibody clone; VL SEQ ID NO:33, VH SEQ ID NO:37, CDR-H3 SEQ ID NO:40 (antibody, V domains shown)
VH: EVQLVESGGGLVQPGGSLRLSCAASGFNISYSSIHWVRQAPGKGLEWVAYISPSSSYTSYADSVKGRFTISADTSKNTAYLQMNSLRAEDTAVYYCARHYYVSVGSGIDYWGQGTLVTVSSAS
VL: DIQMTQSPSSLSASVGDRVTITCRASQSVSSAVAWYQQKPGKAPKLLIYSASSLYSGVPSRFSGSRSGTDFTPTISSLQPEDFATYYCQQASASPYALITFGQGTKVEIKR

Ki (BACE1 [1]): 77 nM
Kd (BACE1 [2]): 130 nM
B10: Fab B2B5: anti-BACE-1 antibody clone; VL SEQ ID NO:100, VH SEQ ID NO:41, CDR-H3 SEQ ID NO:43 (antibody, V domains shown)
VH: EVQLVESGGGLVQPGGSLRLSCAASGFNIYYSYMHWVRQAPGKGLEWVASIYPYYGSTYYADSVKGRFTISADTSKNTAYLQMNSLRAEDTAVYYCARWHGYPPGYSYYSSFSSSGFDYWGQGTLVTVSSAS
VL: B9 VL with L73P, Y91S, S92Y, G93F, P94S
